Assay results published in IntAct's records for PubMed 19632184.

B1: Kinesin-like protein KIF2C (Homo sapiens), Q99661 (parent)
chain: MAMDSSLQARLFPGLAIKIQRSNGLIHSANVRTVNLEKSCVSVEWAEGGATKGKEIDFDDVAAINPELLQLLPLHPKDNLPLQENVTIQKQKRRSVNSKIPAPKESLRSRSTRMSTVSELRITAQENDMEVELPAAANSRKQFSVPPAPTRPSCPAVAEIPLRMVSEEMEEQVHSIRGSSSANPVNSVRRKSCLVKEVEKMKNKREEKKAQNSEMRMKRAQEYDSSFPNWEFARMIKEFRATLECHPLTMTDPIEEHRICVCVRKRPLNKQELAKKEIDVISIPSKCLLLVHEPKLKVDLTKYLENQAFCFDFAFDETASNEVVYRFTARPLVQTIFEGGKATCFAYGQTGSGKTHTMGGDLSGKAQNASKGIYAMASRDVFLLKNQPCYRKLGLEVYVTFFEIYNGKLFDLLNKKAKLRVLEDGKQQVQVVGLQEHLVNSADDVIKMIDMGSACRTSGQTFANSNSSRSHACFQIILRAKGRMHGKFSLVDLAGNERGADTSSADRQTRMEGAEINKSLLALKECIRALGQNKAHTPFRESKLTQVLRDSFIGENSRTCMIATISPGISSCEYTLNTLRYADRVKELSPHSGPSGEQLIQMETEEMEACSNGALIPGNLSKEEEELSSQMSSFNEAMTQIRELEEKAMEELKEIIQQGPDWLELSEMTEQPDYDLETFVNKAESALAQQAKHFSALRDVIKALRLAMQLEEQASRQISSKKRPQ

Variants of: B1
Conditions: with mare1_human MAPRE1, Q15691
Sequence of mare1_human MAPRE1, Q15691 (Q15691 whole entry): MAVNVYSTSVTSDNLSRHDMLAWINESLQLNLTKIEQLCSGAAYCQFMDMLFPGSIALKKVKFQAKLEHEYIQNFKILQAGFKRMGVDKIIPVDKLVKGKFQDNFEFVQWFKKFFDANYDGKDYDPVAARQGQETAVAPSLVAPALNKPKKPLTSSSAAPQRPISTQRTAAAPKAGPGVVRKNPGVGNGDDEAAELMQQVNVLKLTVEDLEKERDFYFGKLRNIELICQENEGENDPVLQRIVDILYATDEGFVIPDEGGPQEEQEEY

Variant	effect of a mutation on the interaction
I100N;P101N	decreasing interaction
